Tests used:
Flag-tagged MePCE = target: T1, Flag-tagged MePCE (UniProt Q7L2J0 1-689); assay: pull-down
T1 sequence (looked up): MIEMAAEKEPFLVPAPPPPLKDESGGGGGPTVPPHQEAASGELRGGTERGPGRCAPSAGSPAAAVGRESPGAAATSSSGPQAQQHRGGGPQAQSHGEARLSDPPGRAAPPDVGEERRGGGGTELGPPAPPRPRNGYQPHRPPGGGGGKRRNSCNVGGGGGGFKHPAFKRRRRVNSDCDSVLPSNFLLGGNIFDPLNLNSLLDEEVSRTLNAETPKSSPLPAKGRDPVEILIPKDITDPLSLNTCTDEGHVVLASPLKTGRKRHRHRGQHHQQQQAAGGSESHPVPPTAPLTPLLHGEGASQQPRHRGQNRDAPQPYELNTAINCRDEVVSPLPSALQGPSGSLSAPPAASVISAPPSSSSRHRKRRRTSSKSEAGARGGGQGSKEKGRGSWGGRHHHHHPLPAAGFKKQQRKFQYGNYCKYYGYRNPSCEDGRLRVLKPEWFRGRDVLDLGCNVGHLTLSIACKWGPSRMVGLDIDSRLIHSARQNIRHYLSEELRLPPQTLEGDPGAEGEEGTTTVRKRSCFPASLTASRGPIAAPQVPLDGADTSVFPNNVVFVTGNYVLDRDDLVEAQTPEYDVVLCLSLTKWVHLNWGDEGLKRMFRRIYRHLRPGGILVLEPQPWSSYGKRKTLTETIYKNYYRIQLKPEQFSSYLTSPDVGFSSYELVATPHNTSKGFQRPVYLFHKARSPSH

Flag-tagged Larp7 = target: T2, Flag-tagged Larp7 (UniProt Q4G0J3 1-582); assay: pull-down
T2 sequence (looked up): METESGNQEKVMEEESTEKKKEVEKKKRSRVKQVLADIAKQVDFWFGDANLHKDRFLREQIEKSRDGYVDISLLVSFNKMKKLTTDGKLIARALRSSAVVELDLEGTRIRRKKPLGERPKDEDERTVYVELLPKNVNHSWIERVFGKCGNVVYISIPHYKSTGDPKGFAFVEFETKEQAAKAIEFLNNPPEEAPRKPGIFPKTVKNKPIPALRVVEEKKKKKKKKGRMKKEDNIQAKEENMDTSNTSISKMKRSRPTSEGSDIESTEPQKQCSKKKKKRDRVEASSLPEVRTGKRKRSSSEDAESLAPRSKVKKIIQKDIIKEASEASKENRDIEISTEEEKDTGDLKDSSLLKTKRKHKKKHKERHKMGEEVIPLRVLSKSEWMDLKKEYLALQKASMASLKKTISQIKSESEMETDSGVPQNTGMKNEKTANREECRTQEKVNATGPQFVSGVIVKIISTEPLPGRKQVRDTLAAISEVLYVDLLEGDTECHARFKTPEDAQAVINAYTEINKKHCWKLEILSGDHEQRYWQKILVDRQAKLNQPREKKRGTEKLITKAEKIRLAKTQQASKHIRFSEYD

B1: Strep-tagged PPM1G (enzyme, UniProt O15355 1-546, looked up)
chain: MGAYLSQPNTVKCSGDGVGAPRLPLPYGFSAMQGWRVSMEDAHNCIPELDSETAMFSVYDGHGGEEVALYCAKYLPDIIKDQKAYKEGKLQKALEDAFLAIDAKLTTEEVIKELAQIAGRPTEDEDEKEKVADEDDVDNEEAALLHEEATMTIEELLTRYGQNCHKGPPHSKSGGGTGEEPGSQGLNGEAGPEDSTRETPSQENGPTAKAYTGFSSNSERGTEAGQVGEPGIPTGEAGPSCSSASDKLPRVAKSKFFEDSEDESDEAEEEEEDSEECSEEEDGYSSEEAENEEDEDDTEEAEEDDEEEEEEMMVPGMEGKEEPGSDSGTTAVVALIRGKQLIVANAGDSRCVVSEAGKALDMSYDHKPEDEVELARIKNAGGKVTMDGRVNGGLNLSRAIGDHFYKRNKNLPPEEQMISALPDIKVLTLTDDHEFMVIACDGIWNVMSSQEVVDFIQSKISQRDENGELRLLSSIVEELLDQCLAPDTSGDGTGCDNMTCIIICFKPRNTAELQPESGKRKLEEVLSTEGAEENGNSDKKKKAKRD
binding result (Flag-tagged MePCE): binds
binding result (Flag-tagged Larp7): binds

Reference: publication PMC3882317 (Cell reports, 2013)
